According to publication PMC11549089:
Where “and” joins values, the source holds several entries; their conditions need not be identical. Equal entries are not always repeated.

Biological target: influenza A virus RNA polymerase (FluAPol) heterotrimer of human influenza A/NT/60/1968 (H3N2) (human influenza A/NT/60/1968 (H3N2) virus) (UniProt P03429)
Assay: cryo-EM structure

## influenza A virus RNA polymerase (FluAPol) heterotrimer of human influenza A/NT/60/1968 (H3N2) (from UniProt P03429) (complex)
  stoichiometry N: 2 and 6
